The source of these data is patent US20200055920A1 (published 2020).

Assay in all cases: Biacore SPR; receptor-Fc captured by anti-Fc antibody, ligand injected
For orientation: SPR reads the build-up and loss of mass on a sensor chip optically.

The target in one experiment is T1, Activin AB (UniProt P08476 311-426; P09529 293-407).
T1 construct: also called βAβB
T1 sequence (looked up) 1: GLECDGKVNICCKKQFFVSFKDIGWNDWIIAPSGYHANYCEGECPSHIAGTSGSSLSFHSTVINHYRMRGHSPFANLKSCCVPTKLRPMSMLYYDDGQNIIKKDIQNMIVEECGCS
T1 sequence (looked up) 2: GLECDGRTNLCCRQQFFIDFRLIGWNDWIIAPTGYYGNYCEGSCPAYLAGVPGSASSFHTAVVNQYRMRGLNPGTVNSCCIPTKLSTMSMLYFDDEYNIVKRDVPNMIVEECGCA
The method, then:
(§1) Ligands were injected and allowed to flow over the captured receptor protein.

For the next experiment, the target named is T2, BMP4 (UniProt P12644 293-408).
T2 sequence (looked up): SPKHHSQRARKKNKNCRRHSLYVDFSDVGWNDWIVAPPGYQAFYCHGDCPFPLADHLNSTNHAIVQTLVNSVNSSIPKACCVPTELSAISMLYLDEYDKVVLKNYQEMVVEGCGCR
The method, then: as §1

Another experiment has as its target T3, Activin AC (UniProt P08476 311-426; P55103 237-352).
T3 sequence (looked up) 1: T1 sequence (looked up) 1
T3 sequence (looked up) 2: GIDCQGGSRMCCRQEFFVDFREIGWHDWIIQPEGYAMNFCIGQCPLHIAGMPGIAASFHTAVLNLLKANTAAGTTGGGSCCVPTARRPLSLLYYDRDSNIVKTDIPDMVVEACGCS
The method, then: as §1

For another experiment, the target named is T4, GDF8 (UniProt O14793 267-375).
T4 construct: also called myostatin; growth and differentiation factor-8
T4 sequence (looked up): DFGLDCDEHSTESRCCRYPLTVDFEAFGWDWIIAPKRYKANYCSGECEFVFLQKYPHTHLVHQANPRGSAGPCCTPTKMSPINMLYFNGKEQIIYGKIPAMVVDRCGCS
The method, then: as §1

Another experiment concerns the target T5, BMP10 (UniProt O95393 317-424).
T5 sequence (looked up): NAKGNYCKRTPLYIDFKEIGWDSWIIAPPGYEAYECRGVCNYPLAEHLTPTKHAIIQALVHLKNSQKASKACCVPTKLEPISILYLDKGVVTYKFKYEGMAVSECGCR
The method, then: as §1

The next experiment concerns the target T6, GDF5 (UniProt P43026 382-501, limits assumed).
T6 construct: also called BMP14
T6 sequence (looked up): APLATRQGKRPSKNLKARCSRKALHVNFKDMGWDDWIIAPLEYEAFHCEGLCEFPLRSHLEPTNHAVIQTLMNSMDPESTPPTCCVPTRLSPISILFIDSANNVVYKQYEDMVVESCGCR
As to the method:
as §1

The target in another experiment is T7, GDF11 (UniProt O95390 299-407).
T7 construct: also called BMP11
T7 sequence (looked up): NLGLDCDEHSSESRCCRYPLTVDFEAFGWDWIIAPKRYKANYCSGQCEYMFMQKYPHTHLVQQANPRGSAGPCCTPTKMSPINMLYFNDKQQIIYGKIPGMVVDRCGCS
As to the method: as §1

The target of another experiment is T8, GDF6 (UniProt Q6KF10 336-455, limits assumed).
T8 construct: also called BMP13
T8 sequence (looked up): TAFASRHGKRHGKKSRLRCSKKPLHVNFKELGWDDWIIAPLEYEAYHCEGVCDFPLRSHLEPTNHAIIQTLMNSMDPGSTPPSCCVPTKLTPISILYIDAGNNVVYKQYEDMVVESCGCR
As to the method:
as §1

The next experiment has as its target T9, BMP5 (UniProt P22003 317-454, limits assumed).
T9 sequence (looked up): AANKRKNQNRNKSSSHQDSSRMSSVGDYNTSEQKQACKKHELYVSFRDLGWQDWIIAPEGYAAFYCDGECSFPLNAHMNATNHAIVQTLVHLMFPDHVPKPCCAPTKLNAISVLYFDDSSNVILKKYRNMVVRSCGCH
As to the method: as §1

Another experiment addresses T10, GDF7 (UniProt Q7Z4P5 322-450, limits assumed).
T10 construct: also called BMP12
T10 sequence (looked up): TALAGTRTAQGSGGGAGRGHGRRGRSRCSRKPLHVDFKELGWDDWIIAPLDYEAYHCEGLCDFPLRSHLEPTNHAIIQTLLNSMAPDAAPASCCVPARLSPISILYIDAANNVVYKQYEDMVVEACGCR
The method, then: as §1

For a further experiment, the target named is T11, BMP7 (UniProt P18075 293-431).
T11 construct: also called osteogenic protein-1; OP-1
T11 sequence (looked up): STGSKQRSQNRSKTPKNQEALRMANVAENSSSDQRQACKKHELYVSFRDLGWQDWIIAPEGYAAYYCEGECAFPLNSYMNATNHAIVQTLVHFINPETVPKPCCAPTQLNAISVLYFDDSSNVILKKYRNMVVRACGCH
As to the method:
as §1

A further experiment concerns the target T12, Activin B (UniProt P09529 293-407).
T12 construct: also called βBβB
T12 sequence (looked up): T1 sequence (looked up) 2
The method, then: as §1

In another experiment the target is BMP2 (UniProt P12643 283-396). The method, then:
as §1

A further experiment deals with T13, Activin A (UniProt P08476 311-426).
T13 construct: also called βAβA
T13 sequence (looked up): T1 sequence (looked up) 1
The method, then: as §1

The next experiment addresses T14, BMP6 (UniProt P22004 382-513, limits assumed).
T14 sequence (looked up): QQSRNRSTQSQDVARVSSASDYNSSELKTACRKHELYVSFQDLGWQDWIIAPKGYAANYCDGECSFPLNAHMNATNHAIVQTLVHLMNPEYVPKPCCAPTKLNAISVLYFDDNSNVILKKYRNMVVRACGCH
As to the method: as §1

BMP2, sequence (P12643 283-396 limits assumed): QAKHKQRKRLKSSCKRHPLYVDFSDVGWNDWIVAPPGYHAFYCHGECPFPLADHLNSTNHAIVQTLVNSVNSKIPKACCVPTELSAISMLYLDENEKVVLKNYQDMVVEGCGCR

B1: single-arm ALK3-Fc heterodimeric complex (Fc fusion)
chain 1: GAQNLDSMLHGTGMKSDSDQKKSENGVTLAPEDTLPFLKCYCSGHCPDDAINNTCITNGHCFAIIEEDDQGETTLASGCMKYEGSDFQCKDSPKAQLRRTIECCRTNLCNQYLQPTLPPVVIGPFFDGSIRTGGGTHTCPPCPAPELLGGPSVFLFPPKPKDTLMISRTPEVTCVVVDVSHEDPEVKFNWYVDGVEVHNAKTKPREEQYNSTYRVVSVLTVLHQDWLNGKEYKCKVSNKALPAPIEKTISKAKGQPREPQVYTLPPSREEMTKNQVSLTCLVKGFYPSDIAVEWESNGQPENNYDTTPPVLDSDGSFFLYSDLTVDKSRWQQGNVFSCSVMHEALHNHYTQKSLSLSPG
chain 2: SNTKVDKRVTGGGTHTCPPCPAPELLGGPSVFLFPPKPKDTLMISRTPEVTCVVVDVSHEDPEVKFNWYVDGVEVHNAKTKPREEQYNSTYRVVSVLTVLHQDWLNGKEYKCKVSNKALPAPIEKTISKAKGQPREPQVYTLPPSRKEMTKNQVSLTCLVKGFYPSDIAVEWESNGQPENNYKTTPPVLKSDGSFFLYSKLTVDKSRWQQGNVFSCSVMHEALHNHYTQKSLSLSPGK
notes: also called ALK3-Fc:Fc heterodimer
By Kd is commonly meant the free concentration of one partner at which half of the binding sites on the other are occupied at equilibrium, for simple one-to-one binding. The low end stands for higher affinity, the high end for lower affinity. What is called koff is the first-order rate constant of dissociation. Higher therefore signals a short-lived complex. Usually kon stands for the rate constant with which the complex forms. Lower therefore signals slow association. With B1, the binding result with Activin AB, in the experiment with Activin AC, in the experiment with GDF8, with BMP10, in the experiment with GDF5 and with GDF11 was “no binding” each time. Besides, the binding result with GDF6, in the experiment with BMP7, in the experiment with Activin B, in the experiment with Activin A and with BMP6 was “no binding” in each case. In addition, the Kd with BMP4 was found to be 0.093 nM; with BMP5, 45 nM; with GDF7, 22 nM; with BMP2, 0.31 nM. Besides, the koff amounted to 4.6e-05 s⁻¹ with BMP4, 0.0053 s⁻¹ in the experiment with BMP5, 0.01 s⁻¹ with GDF7 and 0.00025 s⁻¹ with BMP2. The kon with BMP4 came out at 490000 M⁻¹ s⁻¹; in the experiment with BMP5, 120000 M⁻¹ s⁻¹; in the experiment with GDF7, 460000 M⁻¹ s⁻¹; with BMP2 it was 790000 M⁻¹ s⁻¹.
